Experimental data as given in patent US20230174651A1.

Tests used:
[1] = molecular target: CD79b CAR with CD8α hinge as the spacer; assay: flow cytometry, NK cell line-1 transduced with CD79b CAR construct 137LH at MOI 5, AF647-CD79b at 1 µg/ml; same gate on untransduced (UTD) cells 0.23
Target sequence (P01732 138-182): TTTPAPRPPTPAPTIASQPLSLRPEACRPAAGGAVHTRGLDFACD

[2] = molecular target: CD79b CAR with CD8α hinge as the spacer; assay: flow cytometry, NK cell line-1 transduced with CD79b CAR construct 441HL at MOI 5, AF647-CD79b at 1 µg/ml; same gate on untransduced (UTD) cells 0.23
[3] = molecular target: CD79b CAR with CD8α hinge as the spacer; assay: flow cytometry, NK cell line-2 transduced with CD79b CAR construct 137LH at MOI 5, AF647-CD79b at 1 µg/ml; same gate on untransduced (UTD) cells 0.32
[4] = molecular target: CD79b CAR with CD8α hinge as the spacer; assay: flow cytometry, NK cell line-2 transduced with CD79b CAR construct 441HL at MOI 5, AF647-CD79b at 1 µg/ml; same gate on untransduced (UTD) cells 0.32
[5] = molecular target: CD79b CAR with CD8α hinge as the spacer; assay: flow cytometry, NK cell line-1 transduced with CD79b CAR construct 137LH at MOI 20, AF647-CD79b at 1 µg/ml; same gate on untransduced (UTD) cells 0.23
[6] = molecular target: CD79b CAR with CD8α hinge as the spacer; assay: flow cytometry, NK cell line-1 transduced with CD79b CAR construct 441HL at MOI 20, AF647-CD79b at 1 µg/ml; same gate on untransduced (UTD) cells 0.23
[7] = molecular target: CD79b CAR with CD8α hinge as the spacer; assay: flow cytometry, NK cell line-2 transduced with CD79b CAR construct 137LH at MOI 20, AF647-CD79b at 1 µg/ml; same gate on untransduced (UTD) cells 0.32
[8] = molecular target: CD79b CAR with CD8α hinge as the spacer; assay: flow cytometry, NK cell line-2 transduced with CD79b CAR construct 441HL at MOI 20, AF647-CD79b at 1 µg/ml; same gate on untransduced (UTD) cells 0.32

Sequence of AF647-CD79b (P40259 29-159 limits assumed): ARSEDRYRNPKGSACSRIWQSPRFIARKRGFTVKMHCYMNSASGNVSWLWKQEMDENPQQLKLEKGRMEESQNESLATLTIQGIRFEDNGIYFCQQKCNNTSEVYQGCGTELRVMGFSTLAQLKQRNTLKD

AF647-CD79b (from UniProt P40259 29-159)
% positive (CD79b CAR+ NK cells) [1]: 67.1% | % positive (CD79b CAR+ NK cells) [2]: 69.9% | % positive (CD79b CAR+ NK cells) [3]: 47.4% | % positive (CD79b CAR+ NK cells) [4]: 72.2% | % positive (CD79b CAR+ NK cells) [5]: 74.5% | % positive (CD79b CAR+ NK cells) [6]: 80.8% | % positive (CD79b CAR+ NK cells) [7]: 71.2% | % positive (CD79b CAR+ NK cells) [8]: 85.2%
